Assay results published in article PMC6936856.

B1: DH501 IgG1 (antibody, V domains shown)
VH: QVTLKEFGPALVKPTQPLTLTCSFSGFSLRSSDTAVVWIRQPPGKALEWLAAIYWDDVEHINPSLKSRLSISKDSPNSLVVLTMANMDPVDTATYYCGRVRFVSGGYYTDRIDSWGPGLLVTVSS
VL: QSVLTQPPSVSGAPGQRVTISCAGTKSNIGDCSVSWYQQLPGATPRLLIYQNNNRPSGVSDRFSGSKSGTSASLAITGLQTEDEADYFCLSYDTSFSGWRFGGGTRLTVL
B2: DH501 with HFWR4 somatic mutations reverted to the UCA sequence (antibody, V domains shown)
VH: QVTLKEFGPALVKPTQPLTLTCSFSGFSLRSSDTAVVWIRQPPGKALEWLAAIYWDDVEHINPSLKSRLSISKDSPNSLVVLTMANMDPVDTATYYCGRVRFVSGGYYTDRIDSWGQGVLVTVSS
VL: QSVLTQPPSVSGAPGQRVTISCAGTKSNIGDCSVSWYQQLPGATPRLLIYQNNNRPSGVSDRFSGSKSGTSASLAITGLQTEDEADYFCLSYDTSFSGWRFGGGTRLTVL
B3: DH501 H/UCA L chimeric antibody (antibody, V domains shown)
VH: QVTLKEFGPALVKPTQPLTLTCSFSGFSLRSSDTAVVWIRQPPGKALEWLAAIYWDDVEHINPSLKSRLSISKDSPNSLVVLTMANMDPVDTATYYCGRVRFVSGGYYTDRIDSWGPGLLVTVSS
VL: QSVLTQPPSVSGAPGQRVTISCTGSSSNIGGYYVSWYQQLPGTTPKLLIYQDNKRPSGVSDRFSGSKSGTSASLTITGLQTEDEADYYCLSYDTSFSGWRFGGGTRLTVL

Legend:
[1] = molecular target: JR-FL Env gp160 on pseudovirus (HIV-1 (JR-FL)) (UniProt Q75760)
[2] = molecular target: JR-FL Env gp160 on pseudovirus (HIV-1 (JR-FL)) (UniProt Q75760); remark: listed apart in the source

| Binder | IC50 of neutralisation of kifunensine-treated (Man9GlcNAc2-enriched) JR-FL pseudovirus, TZM-bl cells [1] | IC50 of neutralisation of kifunensine-treated JR-FL, TZM-bl cells [2] |
| --- | --- | --- |
| B1 | 0.09 µg/mL |  |
| B2 |  | 4.34 µg/mL |
| B3 | 0.06 µg/mL |  |
